In a protein production outcome set (Wang et al. 2014) one finds protein production data, which are given here for 17 sequences.

The data set is described as follows: label from the status in PepcDB records.
On to “MYSMSMGERGEAPDGMSGVIRYESLLAARTMAQRQPKKSAGCADSVESFRNPKPKPRFDKDVFCKTSAIRRLRSDFLHGDGSRGTGRHRAVARGPDGVRLHPAGRQRPNLPVASSASRTRHDQGSGRMSVVSAIIGTAERVPLPDVVIRAAIQRLCSRTATRISALGADDEAAFAGRMMLRPIAEDVDAANAGHDEAPASFIAQALGPNRKYSSCFYTTDATTLREAEEEALRQTVAHAGLADGQTILELGCGWGSLSLWTARQFPHAKVTAVSNSQGQRAYVEEQARLRGLLNLRVVTADMNVFAPEGQFDRIVSVEMFEHVMNWRKLMTRLRSWLAPEGRLFMHIVTHRSGSHLFDRANREDWIAQHVFTGGLMASHHLVRQFDDIFTVEKEWCWSGTHYQRTANDWLANFDAHRDAIEASLRNVHGDETALWMRRWRWFFLATSGLFGYAGGTEWGVSHYRMKAADEGVS”, for which the protein production entry is “failed”.

“MFSFFSRWYQERFSDPQAVTLLAILVGLALVLYFAGGLLAPLLVALVLAFLLEWPVAQMLKLGINRTTAASLVLIIFLGIVVLLTFGLIPSVWRQGVSLMTDLPSMIDKGLQTVQGLATQYPQFISVEQLNLMVAELKKLLDTQHVLDIAKQLIGYSASLLVLMVYAILVPLLVFFFLKDKDQLISGSKRFFPTNRQLARKVWFEMHQQIFNYIRGKVIEIVIVGVASYILFAFMGLSYSALLGVLTGLSVLIPYVGATLVTLPIMLVAFFQWGFSSEFGYLMLGYGIIQALDGNVLVPILFSDAVDLHPVIIIAAVLVFGGLWGVLGVFFAIPLASLVKAVINAWPKTEIEPSASAPPQK”: the protein production entry is listed as “failed”. With “MSIRNPNSTLLYRAHSRPPVKLCAPPRSLLPSRRHFSAPRAVVSYPGIRFGFTSPEVLLNRSVVAFAASHEDSGESGVEVGKEKSDIDVEDDTSKEAWKQTLESFKEQVSKMQSVSSEAYSVNSQKAMTVLKETSEQLRIQAEKAKEELGTKAKVVSEEGREYILKAAEESPSDVKEIVEAFASTEDLKNVSRANDFHVGIPYGLLLLVGGFINFMVSGSIPAIRFGVILGGALFALSLASLKSHRKGESSTKFLKGQMAIVAIIFLRELRLLLSQKSTFLGFFTTLTSGGVLGFYLYKMVVKREKGPTLEDGGEDESSDGFVRSEG”, the protein production result is reported as “failed”.

As to “MIEQPSPKVYDELLSIWEEAVRSTHHFLTEADIQFYKPLIRHEYLAAVRLYIIREDSGTIAAFMGLSNDCIEMLFVRPNAHGHGYGSRLVEFAIRKKRIYKVDVNEQNAAALGFYLHMGFETTGRDALDATGKPFPILHLQIPPIRLRK”, the protein production entry is “failed”. On to “MSLKFDFSNLFEPNISGGLTDEDVKSVEEKVTSAVRNFVENTPDFAKLDRSWIDSVKSLEDWIINFDTVVVLGIGGSGLGNLALHYSLRPLNWNEMTREERNGYARVFVVDNVDPDLMSSVLDRIDPKTTLFNVISKSGSTAEVMATYSIARGILEAYGLDPREHMLITTDPEKGFLRKLVKEEGFRSLEVPPGVGGRFSVLTPVGLLSAMAEGIDIDELHEGAKDAFEKSMKENILENPAAMIALTHYLYLNKGKSISVMMAYSNRMIYLVDWYRQLWAESLGKRYNLKGEEVFTGQTPVKALGATDQHSQIQLYNEGPNDKVITFLRVENFDREIVIPETGRAELSYLARKKLSELLLAEQTGTEEALRENNRPNMRVTFDGLTPYNVGQFFAYYEAATAFMGYLLEINPFDQPGVELGKKITFALMGREGYTYEIKERSKKVIIE”, for which the protein production result is recorded as “not failed”. Turning to “MSSLTSVELNFLVFRYLQESGFTHAAFTLGYEAGINKSNIDGNMVPPGALIKFVQKGLQYMEMEANLSNSEVDIDEDFSFFQPLDLISKDVKELQDMLREKKRKERDMEKERDRSKENDKGVEREHEGDRNRAKEKDRHEKQKEREREREKLEREKEREREKIEREKEREREKMEREIFEREKDRLKLEKEREIEREREREKIEREKSHEKQLGDADREMVIDQTDKEIAGDGSTGAEPMDIVMTPTSQTSHIPNSDVRILEGHTSEVCACAWSPSASLLASGSGDATARIWSIPEGSFKAVHTGRNINALILKHAKGKSNEKSKDVTTLDWNGEGTLLATGSCDGQARIWTLNGELISTLSKHKGPIFSLKWNKKGDYLLTGSVDRTAVVWDVKAEEWKQQFEFHSGPTLDVDWRNNVSFATSSTDSMIYLCKIGETRPAKTFTGHQGEVNCVKWDPTGSLLASCSDDSTAKIWNIKQSTFVHDLREHTKEIYTIRWSPTGPGTNNPNKQLTLASASFDSTVKLWDAELGKMLCSFNGHREPVYSLAFSPNGEYIASGSLDKSIHIWSIKEGKIVKTYTGNGGIFEVCWNKEGNKIAACFADNSVCVLDFRM”, the protein production result was “failed”.

Turning to “MATEIGSPPRFFHMPRFQHQAPRQLFYKRPDFAQQQAMQQLTFDGKRMRKAVNRKTIDYNPSVIKYLENRIWQRDQRDMRAIQPDAGYYNDLVPPIGMLNNPMNAVTTKFVRTSTNKVKCPVFVVRWTPEGRRLVTGASSGEFTLWNGLTFNFETILQAHDSPVRAMTWSHNDMWMLTADHGGYVKYWQSNMNNVKMFQAHKEAIREASFSPTDNKFATCSDDGTVRIWDFLRCHEERILRDTCFHHCRCYFLSVKR”, the protein production entry is recorded as “failed”. Turning to “MNILYNERIDGVLPAVDKQQLLDELRRQLPDLDVLHRTEELRPYECDGLSAYRTTPMLVVLPRHLEEVQTLLRLCHAHRVPVVARGAGTGLSGGALPLEKGVLLVMARFNQILAIDPAARVARVQPGVRNLAISQAAAPHGLYYAPDPSSQIACSIGGNVAENAGGVHCLKYGLTVHNLLKVEILTVEGEAMTLGSDTLDSPGFDLLALFTGSEGMLGIITEVTVKLLPRPQVAKVLLAAFDSVEKAGRAVADIIAAGIIPGGLEMMDNLAIRAAEDFIHAGYPVDAEAILLCELDGVEADVHADCERVREVLTQAGATEVRQAIDEAERVRFWAGRKNAFPAVGRLSPDYYCMDGTIPRRALPGVLRGISELSGQYGLRVANVFHAGDGNMHPLILFDANQPGELQRAEALGGKILELCVEVGGSITGEHGVGREKINQMCAQFNSDELTFFHAIKAAFDASGMLNPGKNIPTLQRCAEFGAMHIHAGQLPFPELERF”, the protein production result was “failed”. Regarding “MNQPFLSVVIATFNVAEVLRECLHSLASQTFRDFEVVIQDGASTDGTLAVAQEAAGRLPRLSLASVADSGIYDAWNRALPRVTGDWVLFLGSDDTLAGPDVLAQCARRLADLPPQVLYACGDALEVYPDGSSRAVTCTAEGATRRMADHIPFCHSSLWHRACLFEARHFDATLRIAADYDLICRTWPHDGVGHTLGITVTHMGVGGVSSSPAHRLRTQWELVRVAARHGHGAFSRRRLVPLCKAVGLWVLCRLAGRRASVMLDRLRVMRGLPPCWTTADPARVGGRDSARGDALEHHHHHH”, the protein production entry is reported as “failed”. Turning to “MRLLHTSDWHLGRSFHGVGMLDAQRNFVDQLVSLVQSKSVDVVLIAGDVYDRALPGLDVVKLLDDALVRITQAGAGVVLTSGNHDSAIRLGFASRLLERGGVHLRTKVEDIDVPVLFPLGGDENAKNSTLNGQVVVYGIPYLEPRLVAERLGAENANHFDVTLAAVERIRRDVEARRASGPVYPVVLAHTFASGGITSESERDLSIGGLGAVPLDLFDDFAYTALGHLHGRQELAPHVRYSGSPLAYSFSEAKHHKGAWLVDLDAGGVIAVEEVLWEAPKALATLRGTLDDLLGAEEHAWAENAYCQITLTDTQRPAQAMERVRTRFPDTLVLSFDPQGAAARTSTSYSNRLAEAEDDLGVCCGFLDHVRDRDASDAEEAALREALEAVRLQEAEL”, the protein production result was “failed”. As to “MTDQTKPSWTADRGADLLGALFFLTRLPTPTTHTPPPFTRAVWAFPLAGALVGLIGALAVGGAQALGLSPTLAALLGVSVMALVTGAMHEDAVADIADGFGGGRTRERVLEIMRDSRVGAFGVTALVLVLALRVAALAALAGGPWAMAALVCAAGLGRGAAVLMLGLLPPARTDGLGASFGRPQQASLAFALILCLVLAVVLLPGAAPAVALVGMVAPTLYLAWRAKVRIGGQTGDVAGAAALIGETLALVGLSAMLGAAP”, the protein production result is given as “failed”. With “MTVTDHILPTATNGRPPGLIIAAPSTNSGKTTVTLALHAALRRRSLTVQPYKCGPDYIDPAFHEIAAGRPCYNLDSWAFGQDRITYLLDAAAGADLCLAEGVMGLFDGGSARGAWGNGATADIAAFTGWPVVLVIDVAGQAQSAAALALGFARYRSDVRIAGVILNNVASARHEALVRDGFAAQDIPVLGGFERQRDLTLKNRHLGLVQARETARLDIRLQQLADSAVRGIDLDALIRAAQPARPIASTIRPLTPPGQRIALAHDDAFSFIYPHLTAGWRAAGAEIVPFSPLNDEGPDPSCDAAWLPGGYPELHAGRLAAATRFKAALGAFAETRAVHGECGGYMTLGAGLIDADGTRHAMAGLLGLETDFASRKLHLGYRLATLHADAAGKAAGSVLRGHEYHYARVVTVADEPLAEIRDPAGQLTDETGSRRGHVTGTFFHLIDVAEEAIALEHHHHHH”, the protein production entry is recorded as “failed”. The entry for “KSIRLAKEKESQADYISTYVEWQYIDKNITQCFDKMTNMKLEVAWKAKKKDTVVQIHNQDFTVDLSTNTATAPQGQTFTVQRLVKA” is “not failed”; for “MMRRFKFVVQNITAKIVYTRICMGTIQKIRTDVNVLHAAIHRIEWLFETFSSVCLSFSGGKDSTVLLHLTADVARRKKRRFSVLFIDWEAQYQCTIAHILKMREMYRDVTETFYWVALPLTTVNGVSQFQPEWICWEPGVEWVRQPPDDAITDMSYFPFYRYAMTFEEFVPAFSSWFAGNRCGVAILTGVRADESLNRFMGLVSQRKLRYADDKPWTTASPEGFYYTLYPLYDWKARDIWIYNARTRAIYNPLYDLMYRAGVPLRNMRVCEPFGPEQRKGLWLYHVLEPETWARMCERVSGAASGALYANESGAYFALRKRITKPPHHTWRSYAMFLLDVMPERTAEHYRNKIAVYLRWYQTRGFPDDIPDEQENDLGSRDIPSWRRICKTLIKNDFWCRTLSFSPNKPRHYERYLQRMKERRKEWGIL” it is “failed”; for “MKVSCCFGTCLKHLDPACVKTSRRIAILHSALPRQRPPPALECPAFSFGDSDMTDQRKGSDAEPTTHFGFKNVPESQKAEKVAEVFHSVAAKYDLMNDVLSGGMHRLWKRFTIELSGVRAGNRVLDIAGGTGDLTKRFSHLVGPTGQVVLADINESMLKVGRDRLLDLGVAGNVEFVQADAEKLPFPDNHFDCVTIAFGLRNVTHKEDALRSMLRVLKPGGRLLVLEFSKPTNALMSKVYDAYSFAFMPLAGKLITNDSESYRYLAESIRMHPNQETLKSMMVEAGFDRVTYHNMTAGIVALHRGIKP” it is “failed”. The entry for “MRSSKMDMPIVLSKRHRRLRSMKDCEPGLPYNEIVENGKRIDLCYSKQYKKYTKKIEIRVGTSILHNKLLRIFPNIVKIYSKHFINLPDLITENTEKRELIFIELENLIIGGGTSGLGVLSEISKEEKTLLISSNIESNTDIPYPLPQINKDEFSKLLRDTINENKDRILEGILLGKFDEGIGFLTKDKILMVRAKRVFLATGGRYIPPIFDGNDIPGIISKNLYLRYGNRITKAIALGNSDDIIKVLFKVEKRVIINNGVLFLSKYYKELIDELGVEIINTNNLKVKREKGGMLKIITNERSFDSNILVYAIVKQPKIDHSYNIGIPYNFSEYFHIYMPIHSIEGKTNDNIYIVGGMRGISDEYTSFLSGKTAVNEKYLDEFINNLKDYTYIYDYYYQKNPKENPSPYIYGNKGYVCECEDITLSEVNRQVGRGFSKVEEIKRTIGLGTGECQGKLCTYSLGSFLGDRQLITFRTPLYRMVI” is “failed”; for “MKAALHNLGCKVNSYETEAMEQMLIAAGYEIVPFCEDEKADVYVINTCSVTNIADRKSRQMLHKAKKQNPNAIVVAAGCYVQARGDELAADDMVDIVIGNNRKNRLVEIINDYIGNNSNNEAVVDIAKTHEYEELNIYDVCEHTRAYIKVQDGCNQFCSYCIIPYTRGRVRSRRPEDVTAEVRRLVEKGYKEFILAGIHLSSYGIDFEAPCDEAVDYRAANMPGSRLLELIEAVCSVEGVKRLRLGSFEPRILTEAFVKRMAELEPVCPHFHISLQSGCDATLKRMNRRYTADEYEESCKLLRKYFPNAAITTDVIVGFPQETDEEFAITKEYLERIHFYEMHVFKYSRRKGTAADRMDGQVPEPVKTARSAGLLELEKRMSREYRESALGSIQEVLFEEVAGTCDDCGTSVITGHTKTYINVHVKLPADMSLEYINKICNVKLEHLSDDGEWVNGTLCG” it is “failed”.
